Experiments:
[1] = tested on: IRP1 (iron regulatory protein 1); test: EMSA; details: 25 mM Tris/HCl pH 7.4, 40 mM KCl, 1% Triton X-100, protease inhibitor (EDTA-free), 200 ng IRP1, 100 ng labeled probe, 15 min room temperature, then 50 ng …
[2] = tested on: IRP1 (iron regulatory protein 1); test: competition EMSA; details: 25 mM Tris/HCl pH 7.4, 40 mM KCl, 1% Triton X-100, protease inhibitor (EDTA-free); 200 ng IRP1, 100 ng labeled probe; 15 min room temperature, then 50 ng …

Substance | binding signal (% of WT bound) ([1]; direct, minimal binding, reduction of almost 95%, mean of 4, heparin) | binding signal (% of WT bound) ([1]; direct, 75% decrease, mean of 4, heparin) | Kd [2] [nM] | binding signal (% of WT bound) [1]
FTL 5' IRE +39ΔC | 5 |  |  | 
FTL 5' IRE Ghent +49A>G |  | 25 | 2.7 | 
FTL 5' IRE WT |  |  | 0.5 | 100

From article PMC5740175
